Assays:
mIL22 = molecular target: T1, mIL22 (Mus musculus, UniProt Q9JJY9); assay: Affinity ELISA mIL22; format: binding
T1 sequence (Q9JJY9 34-179): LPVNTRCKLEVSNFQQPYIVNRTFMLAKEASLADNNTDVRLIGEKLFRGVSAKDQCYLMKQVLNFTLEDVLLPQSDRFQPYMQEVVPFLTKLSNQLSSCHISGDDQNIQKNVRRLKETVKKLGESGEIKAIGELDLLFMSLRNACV
Text: The CPE™ library was screened for antibodies that were able to bind to both human IL-22 and mouse IL-22 with high affinity. Specifically, the CPE™ variants were screened by affinity ELISA for mouse IL-22 (mIL-22) binding affinity. The hum10 was included in every affinity ELISA plate as a control. The CPE™ variants with increased binding affinity to mIL-22 compared to hum10 were scored as primary CPE™ hits. The primary CPE™ hits were re-arrayed, re-transfected, and screened again by affinity ELISA and also by titration ELISA using both mIL-22 and human IL-22 (hIL-22) for antibodies that bind to both mIL-22 and hIL-22. These 10 mutant antibodies were selected based on ELISA data and sequence diversity, ability to scaled up and purified.

mouse IL-22 (mIL-22) = molecular target: T2, mouse IL-22 (mIL-22) (Mus musculus, UniProt Q9JJY9); assay: Inhibition of mIL-22 induced Stat3 phosphorylation in HepG2 cells; format: cell-based; details: mAb 6.7 nM
T2 sequence (Q9JJY9 34-179): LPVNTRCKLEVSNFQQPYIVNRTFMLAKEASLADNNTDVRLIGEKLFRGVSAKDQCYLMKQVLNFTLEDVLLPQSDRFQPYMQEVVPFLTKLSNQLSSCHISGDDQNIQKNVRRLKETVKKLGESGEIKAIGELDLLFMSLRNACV
Method: One of the immediate functions of IL-22 is inducing phosphorylation of Stat3, a protein in the signaling pathway of IL-22. The 10 antibodies of Table 1 were tested in a cell-based assay for blocking IL-22-dependent phosphorylation of Stat3 through human or mouse IL-22 in HepG2 cells. Antibody hum10 and mutant CPE-LC-E049K were used as controls. Four concentrations of each of the antibodies were used: 0.11 μg/mL, 0.33 μg/mL, 1 μg/mL, and 3 μg/mL.
30,000 human HepG2 cells were seeded in 96 well plates and serum starved overnight. Three-fold dilutions of anti-IL-22 antibodies and control hum10 antibody at concentrations of 0.11 μg/mL, 0.33 μg/mL, 1 μg/mL, and 3 μg/mL were incubated with 200 ng/ml of hIL-22 or mIL-22 at 37° C. for one hour then added to the serum starved human HepG2 cells. The HepG2 cells were incubated with the antibody-IL-22 mixture at 37° C. for 20 minutes. After incubation, HepG2 cells were washed with PBS and lysed. Half of the cell lysate was used to determine the level of phosphorylated Stat3 using Cell Signaling kit #7300 following the vendor's protocol and the other half of the cell lysate was used to determine the level of total Stat3 by Western blot analysis using a Santa Cruz rabbit polyclonal antibody (Sc-7179) against human Stat3.

Affinity ELISA mIL22 50% max signal mAb (mIL22; first mIL22 line of Table 3): no binding
Affinity ELISA mIL22 50% max signal mAb (mIL22; second mIL22 line of Table 3): no binding
STAT3 Phosphorylation; mIL22 % inhibition (mouse IL-22 (mIL-22)): no inhibition
B1: hum10: parent humanized monoclonal antibody against human IL-22; light chain variable region SEQ ID NO: 19, heavy chain variable region SEQ ID NO:20 (antibody, V domains shown)
VH: QVQLVQSGAEVKKPGASVKVSCKASGYIFTSYWIHWIRQPPGKGLEWIGRIYPGTGNTYYNEKFKGRVTISADKSISTAYLQWSSLKASDTAMYYCARSYDSSCAYWGQGTLVTVSS
VL: AIQLTQSPSSLSASVGDRVTITCSASSSVSYMHWYLQKPGQSPQLLIYETSKLASGVPSRFSGSGSGTDFTFTISSLEAEDAATYYCQQWSSNPYITFGQGTKVEIKR
modifications: Synthetic sequence hum10-HC; Synthetic sequence hum10-LC
